Results from patent US20040259787A1 (published 2004).

Target: T1, C1q (UniProt P02745 23-245; P02746 28-253; P02747 29-245, radioiodinated (Bolton & Hunter) in the assay of FIG. 2)
T1 construct: mature; Purified native C1q; also called native fluid-phase C1q; radioiodinated C1q
Experiment: solid-phase domain, radioiodinated C1q, low salt
Description: Microtitre plates were coated with the N-, P-, C- and CUB-domains and with three controls, cC1qR, BSA and Thioredoxin, (8 mg/ml in 35 mM NaHCO3, 15 mM Na2CO3 pH 9.6) for 2 hr at 37° C. Non-specific interactions were blocked by incubation with 10 mM potassium phosphate, 0.5 mM EDTA pH 7.4 containing BSA (10 mg/ml). Any free —SH groups in the samples, due to the presence of the thioredoxin fusion protein, were blocked by a brief washing step using the phosphate buffer containing 2 mM iodoacetamide. […] Wells were washed three times with phosphate buffer and bound radioactivity eluted with 100 ml 4M NaOH and measured.

T1 sequence (P02745 23-245, chain 1 of 3): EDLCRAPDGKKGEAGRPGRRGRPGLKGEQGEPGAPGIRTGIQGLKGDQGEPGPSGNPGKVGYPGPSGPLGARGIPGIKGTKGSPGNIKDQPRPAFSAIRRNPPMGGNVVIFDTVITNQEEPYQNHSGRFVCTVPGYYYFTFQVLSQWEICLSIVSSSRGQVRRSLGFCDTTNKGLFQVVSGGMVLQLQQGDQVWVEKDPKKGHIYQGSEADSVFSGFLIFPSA
T1 sequence (P02746 28-253, chain 2 of 3): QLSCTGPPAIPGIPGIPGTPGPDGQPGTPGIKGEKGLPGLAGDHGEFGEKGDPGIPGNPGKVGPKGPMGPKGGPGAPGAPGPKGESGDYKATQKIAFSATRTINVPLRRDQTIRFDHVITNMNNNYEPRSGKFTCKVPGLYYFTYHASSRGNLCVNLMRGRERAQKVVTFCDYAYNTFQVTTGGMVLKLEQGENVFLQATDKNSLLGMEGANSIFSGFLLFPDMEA
T1 sequence (P02747 29-245, chain 3 of 3): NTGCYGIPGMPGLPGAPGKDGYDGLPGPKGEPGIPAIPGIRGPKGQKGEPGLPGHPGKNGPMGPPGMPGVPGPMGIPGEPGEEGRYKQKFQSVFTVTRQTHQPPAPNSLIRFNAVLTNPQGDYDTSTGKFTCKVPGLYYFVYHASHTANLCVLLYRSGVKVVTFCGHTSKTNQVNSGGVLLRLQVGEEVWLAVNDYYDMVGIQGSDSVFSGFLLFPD

B1: recombinant C-domain of human cC1qR/CRT, thioredoxin fusion protein (other)
chain: DNFGVLGLDLWQVKSGTIFDNFLITNDEAYAEEFGNETWGVTKAAEKQMKDKQDEEQRLKEEEEDKKRKEEEEAEDKEDDEDKDEDEEDEEDKEEDEEEDVPGQAKDEL
notes: not shown: thioredoxin fusion partner from plasmid pTrxfus (Invitrogen), expressed in E. coli
Does B1 bind?
Result: no binding
